Measurements from PMC10236585.

Molecular target: mu-FGF5-Flag (FGF5 p. L191S) (rabbit)
Assay: co-IP; HEK293T cells co-transfected with FGFR1 and FGF5-Flag or mu-FGF5-Flag; lysed 48 h later (50 mM Tris pH 7.4, 150 mM NaCl, 0.2 mM EDTA, 2 mM EGTA, 0.5% Igepal CA-630, 10% glycerol); anti-Flag IP resin overnight at 4 °C; immunoblot with anti-FGFR1 and anti-Flag; densitometry of FGFR1 in the IP normalised to FGF5 or mu-FGF5

“FGFR1 (fibroblast growth factor receptor 1)” was tested, and the fold decline in binding ability to FGFR1 against FGF5 was 0.49 fold.
